Patent US9365899

Molecular target: yeast Fab1/PIKfyve kinase (yeast) (UniProt P34756)
Test: cell-based or functional assay

Sequence of UniProt P34756 (P34756 2-2278 limits assumed): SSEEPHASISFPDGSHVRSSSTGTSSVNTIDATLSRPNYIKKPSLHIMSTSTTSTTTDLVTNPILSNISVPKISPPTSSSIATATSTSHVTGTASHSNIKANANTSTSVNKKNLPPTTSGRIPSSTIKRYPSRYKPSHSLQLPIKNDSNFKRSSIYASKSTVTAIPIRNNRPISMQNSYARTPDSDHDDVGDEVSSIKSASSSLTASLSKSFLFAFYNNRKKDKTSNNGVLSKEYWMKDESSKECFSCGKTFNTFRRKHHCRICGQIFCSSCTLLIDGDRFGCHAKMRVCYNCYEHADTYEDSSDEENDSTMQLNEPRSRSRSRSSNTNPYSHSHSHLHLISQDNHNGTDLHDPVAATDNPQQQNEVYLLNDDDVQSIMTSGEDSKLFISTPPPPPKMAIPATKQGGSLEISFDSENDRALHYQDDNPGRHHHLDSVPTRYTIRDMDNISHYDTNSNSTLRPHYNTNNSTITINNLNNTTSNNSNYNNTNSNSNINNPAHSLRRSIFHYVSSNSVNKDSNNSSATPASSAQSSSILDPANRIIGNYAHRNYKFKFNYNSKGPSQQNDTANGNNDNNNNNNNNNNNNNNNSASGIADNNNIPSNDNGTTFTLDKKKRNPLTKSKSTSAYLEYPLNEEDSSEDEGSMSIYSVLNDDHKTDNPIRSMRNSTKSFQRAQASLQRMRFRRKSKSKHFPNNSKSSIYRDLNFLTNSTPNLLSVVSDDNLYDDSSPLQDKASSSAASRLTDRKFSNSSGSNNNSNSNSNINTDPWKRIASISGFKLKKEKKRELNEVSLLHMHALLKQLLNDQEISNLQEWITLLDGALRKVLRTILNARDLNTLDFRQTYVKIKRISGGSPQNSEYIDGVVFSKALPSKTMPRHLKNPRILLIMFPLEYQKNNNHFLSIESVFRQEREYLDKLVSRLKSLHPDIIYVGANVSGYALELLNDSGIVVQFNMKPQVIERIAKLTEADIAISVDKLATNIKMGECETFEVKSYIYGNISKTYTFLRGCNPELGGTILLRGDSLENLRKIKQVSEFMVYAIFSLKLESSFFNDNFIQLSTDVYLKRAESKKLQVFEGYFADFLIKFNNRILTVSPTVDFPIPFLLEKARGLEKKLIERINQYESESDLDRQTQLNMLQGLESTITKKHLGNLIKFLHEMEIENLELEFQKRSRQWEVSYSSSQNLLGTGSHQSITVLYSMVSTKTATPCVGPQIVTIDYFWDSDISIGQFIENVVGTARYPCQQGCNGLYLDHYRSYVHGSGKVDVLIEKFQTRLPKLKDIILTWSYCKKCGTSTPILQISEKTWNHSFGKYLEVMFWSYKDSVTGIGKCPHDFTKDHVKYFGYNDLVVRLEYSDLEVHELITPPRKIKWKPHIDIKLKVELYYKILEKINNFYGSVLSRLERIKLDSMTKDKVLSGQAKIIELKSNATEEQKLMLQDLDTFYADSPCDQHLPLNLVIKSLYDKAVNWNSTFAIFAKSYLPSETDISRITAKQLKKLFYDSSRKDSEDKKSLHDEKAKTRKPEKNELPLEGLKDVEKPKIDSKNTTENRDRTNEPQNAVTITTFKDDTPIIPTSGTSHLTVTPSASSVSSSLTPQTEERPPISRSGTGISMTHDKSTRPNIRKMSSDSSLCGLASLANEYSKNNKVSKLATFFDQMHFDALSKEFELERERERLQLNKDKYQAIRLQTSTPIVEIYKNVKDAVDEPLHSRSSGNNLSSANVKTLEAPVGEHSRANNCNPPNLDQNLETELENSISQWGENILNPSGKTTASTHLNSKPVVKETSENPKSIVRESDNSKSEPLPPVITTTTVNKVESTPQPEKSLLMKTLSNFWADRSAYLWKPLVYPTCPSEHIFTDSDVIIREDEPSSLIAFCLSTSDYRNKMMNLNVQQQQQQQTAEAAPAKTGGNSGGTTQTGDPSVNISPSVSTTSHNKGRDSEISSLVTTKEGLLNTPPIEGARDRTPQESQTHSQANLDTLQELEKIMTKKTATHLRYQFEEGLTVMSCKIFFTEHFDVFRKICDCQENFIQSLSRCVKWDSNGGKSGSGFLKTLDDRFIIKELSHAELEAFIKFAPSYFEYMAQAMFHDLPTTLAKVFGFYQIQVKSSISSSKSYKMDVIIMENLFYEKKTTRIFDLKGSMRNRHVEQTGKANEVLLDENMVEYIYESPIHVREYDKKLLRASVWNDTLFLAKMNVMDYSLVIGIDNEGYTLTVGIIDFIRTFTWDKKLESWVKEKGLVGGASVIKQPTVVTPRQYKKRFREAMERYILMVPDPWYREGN

Row | increase in intracellular PI(3,5)P2 concentration after hyperosmotic shock | Substance
1 | 4 fold | yeast FIG4 protein with the Ile>Thr mutation corresponding to human I41T (from UniProt P42837 1-879) (enzyme)
2 | 10 fold | yeast FIG4 protein, wildtype (from UniProt P42837 1-879)
